The record followed here is EP4299124A1 (UNIVERSITE DE MONTPELLIER, dated 2024).

First the molecules themselves.
B1: IGF-1252 (IGF-1159 HcAb IGF-1168) (bispecific antibody)
chain: QVQLVQSGGGLVQAGGSLRLSCAASGRTFSSFAMAWFRQAPGKEREFVAAISWSGSTGHADSVKGRFTITRDNAKNTVFLQMNSLKPEDTAVYYCALGKGSSYYYSPSGYDYWGQGTQVTVSSEPKIPQPQPKPQPQPQPQPQPKPQPKPEPQVQLVQSGGGLVQAGGSLRLSCAASVRFFSINTMGWYRQAPGKQRELVADITSSGSTNYADSGKGRFTISRDNAKNTVYLQMNRLKPEDTAVYYCHADYKYTTHNTAWGQGTQVTVSS
B2: IGF-1201 (IGF-1168 GS IGF-1159) (bispecific antibody)
chain: QVQLVQSGGGLVQAGGSLRLSCAASVRFFSINTMGWYRQAPGKQRELVADITSSGSTNYADSGKGRFTISRDNAKNTVYLQMNRLKPEDTAVYYCHADYKYTTHNTAWGQGTQVTVSSGGGGSGGGGSGGGGSQVQLVQSGGGLVQAGGSLRLSCAASGRTFSSFAMAWFRQAPGKEREFVAAISWSGSTGHADSVKGRFTITRDNAKNTVFLQMNSLKPEDTAVYYCALGKGSSYYYSPSGYDYWGQGTQVTVSS
B3: IGF-1261 (IGF-1168 GS IGF-1168) (VHH)
chain: QVQLVQSGGGLVQAGGSLRLSCAASVRFFSINTMGWYRQAPGKQRELVADITSSGSTNYADSGKGRFTISRDNAKNTVYLQMNRLKPEDTAVYYCHADYKYTTHNTAWGQGTQVTVSSGGGGSGGGGSGGGGSQVQLVQSGGGLVQAGGSLRLSCAASVRFFSINTMGWYRQAPGKQRELVADITSSGSTNYADSGKGRFTISRDNAKNTVYLQMNRLKPEDTAVYYCHADYKYTTHNTAWGQGTQVTVSS
notes: Used His-tagged in the assay
B4: biparatopic IGF1202 (construct IGF1168-linker sequence L1-IGF1159) (bispecific antibody)
chain: QVQLVQSGGGLVQAGGSLRLSCAASVRFFSINTMGWYRQAPGKQRELVADITSSGSTNYADSGKGRFTISRDNAKNTVYLQMNRLKPEDTAVYYCHADYKYTTHNTAWGQGTQVTVSSEPKIPQPQPKPQPQPQPQPQPKPQPKPEPQVQLVQSGGGLVQAGGSLRLSCAASGRTFSSFAMAWFRQAPGKEREFVAAISWSGSTGHADSVKGRFTITRDNAKNTVFLQMNSLKPEDTAVYYCALGKGSSYYYSPSGYDYWGQGTQVTVSSLEHHHHHH
B5: IGF-1159 nanobody (VHH)
VHH: QVQLVQSGGGLVQAGGSLRLSCAASGRTFSSFAMAWFRQAPGKEREFVAAISWSGSTGHADSVKGRFTITRDNAKNTVFLQMNSLKPEDTAVYYCALGKGSSYYYSPSGYDYWGQGTQVTVSS
B6: IGF-1262 (IGF-1168 HcAb IGF-1168) (VHH)
chain: QVQLVQSGGGLVQAGGSLRLSCAASVRFFSINTMGWYRQAPGKQRELVADITSSGSTNYADSGKGRFTISRDNAKNTVYLQMNRLKPEDTAVYYCHADYKYTTHNTAWGQGTQVTVSSEPKIPQPQPKPQPQPQPQPQPKPQPKPEPQVQLVQSGGGLVQAGGSLRLSCAASVRFFSINTMGWYRQAPGKQRELVADITSSGSTNYADSGKGRFTISRDNAKNTVYLQMNRLKPEDTAVYYCHADYKYTTHNTAWGQGTQVTVSS
notes: Used His-tagged in the assay
B7: IGF-1251 (IGF-1159 GS IGF-1168) (bispecific antibody)
chain: QVQLVQSGGGLVQAGGSLRLSCAASGRTFSSFAMAWFRQAPGKEREFVAAISWSGSTGHADSVKGRFTITRDNAKNTVFLQMNSLKPEDTAVYYCALGKGSSYYYSPSGYDYWGQGTQVTVSSGGGGSGGGGSGGGGSQVQLVQSGGGLVQAGGSLRLSCAASVRFFSINTMGWYRQAPGKQRELVADITSSGSTNYADSGKGRFTISRDNAKNTVYLQMNRLKPEDTAVYYCHADYKYTTHNTAWGQGTQVTVSS

In one experiment the target is T1, rat mGlu2 SNAP-tagged receptor (rat, UniProt P31421 19-872, SNAP tag labelled with SNAP-Lumi4-Tb). Description: cell-based or functional assay.
T1 sequence (P31421 19-872): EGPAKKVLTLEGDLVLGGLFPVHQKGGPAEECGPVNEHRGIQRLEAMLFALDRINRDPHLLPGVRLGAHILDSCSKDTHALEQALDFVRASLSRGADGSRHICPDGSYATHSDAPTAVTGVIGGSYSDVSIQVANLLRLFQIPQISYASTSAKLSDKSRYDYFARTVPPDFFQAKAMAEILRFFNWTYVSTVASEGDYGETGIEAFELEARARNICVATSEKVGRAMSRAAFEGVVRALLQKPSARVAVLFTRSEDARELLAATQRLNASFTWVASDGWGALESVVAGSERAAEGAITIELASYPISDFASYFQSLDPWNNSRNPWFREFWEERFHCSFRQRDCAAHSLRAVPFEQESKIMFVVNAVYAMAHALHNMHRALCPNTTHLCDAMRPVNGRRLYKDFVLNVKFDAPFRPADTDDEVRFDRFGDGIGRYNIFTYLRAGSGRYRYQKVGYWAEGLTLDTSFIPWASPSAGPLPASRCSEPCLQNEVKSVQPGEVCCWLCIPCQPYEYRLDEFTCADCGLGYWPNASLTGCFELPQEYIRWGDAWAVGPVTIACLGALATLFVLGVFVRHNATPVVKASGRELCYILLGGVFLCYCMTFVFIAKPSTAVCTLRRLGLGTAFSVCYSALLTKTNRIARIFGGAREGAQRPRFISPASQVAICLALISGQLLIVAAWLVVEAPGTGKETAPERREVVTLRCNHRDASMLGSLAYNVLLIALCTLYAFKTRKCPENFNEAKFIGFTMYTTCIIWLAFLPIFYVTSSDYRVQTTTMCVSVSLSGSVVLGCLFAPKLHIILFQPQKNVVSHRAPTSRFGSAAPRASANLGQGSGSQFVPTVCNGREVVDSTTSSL
B1 yielded a PAM effect G protein coupling, pEC50 of 7.94 pEC50.

On to B2, for which the PAM effect G protein coupling, pEC50 was found to be 8.25 pEC50.

For the molecule B3, the “PAM effect G protein coupling, pEC50” value came to 7.62 pEC50.

The molecule B4 yielded a PAM effect G protein coupling, pEC50 of 8.81 pEC50.

For B5, the “PAM effect G protein coupling, pEC50” value was determined as 6.96 pEC50.

As to B6, the “PAM effect G protein coupling, pEC50” value is 7.2 pEC50.

B7 displayed a PAM effect G protein coupling, pEC50 of 7.65 pEC50.

A further experiment addresses T1, rat mGlu2 SNAP-tagged receptor. Description: TR-FRET on HEK-293 cells with SNAP-tagged rat mGlu2, anti-6His-d2; active conformation. (In general: In TR-FRET formats the signal depends on donor and acceptor labels being close together.)
Turning to B1, the pKd is 8.77 pKd.

Turning to B2, the pKd came out at 9.34 pKd.

The molecule B3 displayed a pKd of 8.51 pKd.

Take B4: the pKd turned out to be 9.27 pKd.

The molecule B5 came in with a pKd of 8.46 pKd.

As for B6, the pKd came out at 8.23 pKd.

Regarding B7, the pKd stood at 8.99 pKd.

For the next experiment the target is unchanged. In words: TR-FRET on HEK-293 cells with SNAP-tagged rat mGlu2, anti-6His-d2; inactive conformation.
The molecule B1 gave a pKd of 8.49 pKd.

Take B2: the pKd was 8.95 pKd.

The molecule B4 yielded a pKd of 8.87 pKd.

In the case of B7, the pKd stood at 8.54 pKd.
